Source: paper PMC11672854, “A High-Affinity Monoclonal Antibody Against the Pancreatic Ductal Adenocarcinoma Target, Anterior Gradient-2 (AGR2/PDIA17)” (Antibodies, 2024)
Changes are numbered by the printed parent chain. In names and notes the source's numbering stands.

T1: LY6/PLAUR Domain Containing 3, LYPD3 (31-325) with C-terminal 6x-His tag (UniProt O95274 31-325)
T1 construct: LY6/PLAUR Domain Containing 3 (LYPD3, C4.4A), residues 31-325; also called C4.4A; source: expi293F, transfected, secreted, purified from media (HisTrap Excel); not shown: His6, C-terminal, kept
T1 sequence (looked up): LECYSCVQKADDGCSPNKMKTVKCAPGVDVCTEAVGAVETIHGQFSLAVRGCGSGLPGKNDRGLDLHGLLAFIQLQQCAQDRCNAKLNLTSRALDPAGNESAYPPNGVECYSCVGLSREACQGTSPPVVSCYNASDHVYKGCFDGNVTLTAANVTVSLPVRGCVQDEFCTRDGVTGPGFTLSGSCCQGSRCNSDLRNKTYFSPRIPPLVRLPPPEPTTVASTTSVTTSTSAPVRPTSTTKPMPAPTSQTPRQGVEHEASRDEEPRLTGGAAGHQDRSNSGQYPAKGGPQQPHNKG

B1: S31R/A53Y/T59P (antibody, V domains shown)
VH: EVQLLESGGGLVQPGGSLRLSCAASGFTFSRYAMSWVRQAPGKGLEWVSGISYQGAHTPYADSVKGRFTISRDNSKNTLYLQMNSLRAEDTAVYYCAKTYKGFDYWGQGTLVTVSS
VL: DIQMTQSPSSLSASVGDRVTITCRASQSISSYLNWYQQKPGKAPKLLIYSASRLQSGVPSRFSGSGSGTDFTLTISSLQPEDFATYYCQQGRRMPPTFGQGTKVEIK
B2: S31R/A53F/T59P (antibody, V domains shown)
VH: B1 VH with Y53F
VL: B1 VL
B3: Anterior Gradient-2 (AGR2/PDIA17), AGR2 (21-175), 6x-His tag removed (natural protein, human, UniProt O95994 21-175, looked up)
chain: RDTTVKPGAKKDTKDSRPKLPQTLSRGWGDQLIWTQTYEEALYKSKTSNKPLMIIHHLDECPHSQALKKVFAENKEIQKLAEQFVLLNLVYETTDKHLSPDGQYVPRIMFVDPSLTVRADITGRYSNRLYAYEPADTALLLDNMKKALKLLKTEL
notes: Anterior Gradient-2 (AGR2/PDIA17), human, residues 21-175; tag removed with 8x-His-TEV; also called rAGR2; recombinant AGR2; source: E. coli BL21(DE3), purified (HisTrap, TEV cleavage, second HisTrap flow-through); not shown: His6, N-terminal, cleaved
B4: anti-AGR2 monoclonal antibody MAb-15 (VH-VL of scFv-15 in a full human IgG1 backbone) (antibody, V domains shown)
VH: B1 VH with R31S, Y53A, P59T
VL: B1 VL
notes: VH of scFv-15 (as the VH of m3); human IgG1 heavy chain constant region (full human IgG1 backbone); VL of scFv-15 (as the VL of m3); light chain constant region; IgG1; also called original anti-AGR2 antibody; parent MAb-15; source: expi293F, transfected, purified from media (rProteinA)
B5: affinity-matured anti-AGR2 MAb S31R (VH mutant of MAb-15, human IgG1) (antibody, V domains shown)
VH: B1 VH with Y53A, P59T
VL: B1 VL
notes: as the VH of m4 (scFv-15) with the stated change; human IgG1 heavy chain constant region; IgG1; source: expi293F, transfected, purified from media (rProteinA)
B6: affinity-matured anti-AGR2 MAb S31R/A53F (VH mutant of MAb-15, human IgG1) (antibody, V domains shown)
VH: B1 VH with Y53F, P59T
VL: B1 VL
notes: as the VH of m4 (scFv-15) with the stated changes; human IgG1 heavy chain constant region; IgG1; source: expi293F, transfected, purified from media (rProteinA)
B7: affinity-matured anti-AGR2 MAb S31R/A53Y (VH mutant of MAb-15, human IgG1) (antibody, V domains shown)
VH: B1 VH with P59T
VL: B1 VL
notes: as the VH of m4 (scFv-15) with the stated changes; human IgG1 heavy chain constant region; IgG1; also called anti-AGR2 MAb clone S31R/A53Y; source: expi293F, transfected, purified from media (rProteinA)

Experiments:
[1] = molecular target: T2, Anterior Gradient-2 (AGR2/PDIA17), AGR2 (21-175), 6x-His tag removed (human, UniProt O95994)
[2] = molecular target: T1, LY6/PLAUR Domain Containing 3, LYPD3 …; assay: ELISA; MaxiSorp plates coated with 1 µg AGR2 (or BSA); varying LYPD3 in 50 mM Tris, 140 mM NaCl, 1% BSA, 0.05% Tween 20, pH 8.0, 1 h at 37 °C; detection with anti-6x-His-peroxidase; conditions: both partners purified
[3] = molecular target: T2, Anterior Gradient-2 (AGR2/PDIA17), AGR2 …; assay: ELISA; MaxiSorp plates coated with 1 µg AGR2 (wild type or mutant), PDI, TXN or BSA; varying MAb in 50 mM Tris, 140 mM NaCl, 1% BSA, 0.05% Tween 20, pH 8.0, 1 h at 37 °C; detection with Protein L-peroxidase; conditions: both partners purified

Row | Binder | EC50 [3] [nM] | other results
1 | B1 |  | binding result [1]: binds
2 | B2 |  | binding result [1]: binds
3 | B3 |  | binding result [2]: binds
4 | B4 | 2.03 | 
5 | B5 | 0.156 | 
6 | B6 | 0.0385 | 
7 | B7 | 0.0404 | 
